Values of other authors in PMC4041007.

Experiments:
LLT1 (Homo sapiens) = LLT1 (Homo sapiens) (UniProt Q9UHP7)
KACL (Homo sapiens) = KACL (Homo sapiens) (UniProt Q6UVW9)
UniProt Q6UVW9, sequence (Q6UVW9 whole entry): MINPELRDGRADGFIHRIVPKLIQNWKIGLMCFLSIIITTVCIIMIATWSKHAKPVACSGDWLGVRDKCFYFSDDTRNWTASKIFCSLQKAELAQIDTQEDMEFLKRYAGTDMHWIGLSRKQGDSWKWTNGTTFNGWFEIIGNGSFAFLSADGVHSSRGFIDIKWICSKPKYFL

UniProt Q9UHP7, sequence (Q9UHP7 whole entry): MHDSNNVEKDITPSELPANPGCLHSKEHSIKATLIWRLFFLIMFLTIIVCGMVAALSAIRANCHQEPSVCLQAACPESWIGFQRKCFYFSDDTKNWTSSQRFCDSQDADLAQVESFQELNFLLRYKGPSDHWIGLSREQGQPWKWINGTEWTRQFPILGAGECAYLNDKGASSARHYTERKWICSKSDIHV

Row | Substance | Kd (LLT1 (Homo sapiens)) | Kd (KACL (Homo sapiens))
1 | NKR-P1A (from UniProt Q12918) | 50 µM | –
2 | NKp65 (from UniProt D3W0D1) | – | 0.002 µM
